Data published in patent publication US20160075790A1 (Bristol-Myers Squibb, published 2016).
“And” between values parts separate entries of the source, which are not always exact repeats. Equal values may be shown once.

B1: BMS2h-494 (other)
VL: DIQMTQSPSSLSASVGDRVTITCRASQSIDEDLEWYQQKPGKAPRLLIYSSSWLQSGVPSRFSGSGSGTDFTLTISSLQPEDFATYYCQQYFQYPPTFGQGTKVEIKR
B2: BMS2h-494-3 (other)
VL: DIQMTQSPSSLSASVGDRVTITCRASQSIDEDLEWYQQKPGKAPRLLIYSSSWLQSGVPSRFSGSGSGTDFTLTISSLQPEDFATYFCQQYFQYPPTFGQGTKVEIKR
B3: BMS2h-494-2 (other)
VL: DIQMTQSPSSLSASVGDRVTITCRASQSIEEDLEWYQQKPGKAPRLLIYSSSWLQSGVPSRFSGSGSGTDFTLTISSLQPEDFATYYCQQYFQYPPTFGHGTKVEIKR
B4: BMS2h-719-2 (other)
VH: EVQLLESGGGLVQPGGSLRLSCAASGFTFKRYEMMWVRQAPGKGLEWVSSISSDGSFTYYADSVKGRFTISRDNSKNTLYLQMNSLRAEDTAVYYCAEPFTEFDYWGHGTLVTVSS
B5: BMS2h-719-202 (other)
VH: EVQLLESGGGLVQPGGSLRLSCAASGFTFKKYEMMWVRQAPGKGLEWVSSISSDGSFTYYADSVKGRFTISRDNSKNTLYLQMNSLRAEDTAVYYCAEPFTEFDYWGHGTLVTVSS
B6: BMS2h-719-17 (other)
VH: EVQLLESGGGLVQPGGSLRLSCAASGFTFKRYEMSWVRQAPGKGLEWVSSISSDGSFTYYADSVKGRFTISRDNSKNTLYLQMNSLRAEDTAVYYCADPFTEIDYWGQGTQVTVSS
B7: BMS2h-719-12 (other)
VH: EVQLLESGGGLVQPGGSLRLSCAASGFTFKRYEMMWVRQAPGKGLEWVSSISSDGSFTYYADSVKGRFTVSRDNSKNTLYLQMNSLRAEDTAVYYCADPFTEFDYWGQGTLVTVSS
B8: BMS2h-719-225 (other)
VH: EVQLLESGGGLVQPGGSLRLSCAASGFTFNTYEMQWVRQAPGKGLEWVSSISSDGSFTYYADSVKGRFTISRDNSKNTLYLQMNSLRAEDTAVYYCAEPFTEFDYWGHGTLVTVSS
B9: BMS2h-719-226 (other)
VH: EVQLLESGGGLVQPGGSLRLSCAASGFTFNKYEMMWARQAPGKGLEWVSSISSDGSFTYYADSVKGRFTISRDNSRNTLYLQMNSLRAEDTAVYYCAEPFTEFDYWGHGTLVTVSS
B10: BMS2h-719-19 (other)
VH: EVQLLESGGGWVQPGGSLRLSCAASGFTFKRYEMMWVRQAPGKGLEWVSSISSDGSFTYYADSVKGRFTISRDNSKNTLYLQMNSLRAEDTAVYYCADPFTEFDYWGQGTLVTVSS
B11: BMS2h-719-13 (other)
VH: EVQLLESGGGLVQPGGSLRLSCAASGFTFKRYEMMWVRQAPGKGLEWVSSISSDGSFTYYADSVKGRFTISRDNTKNTLYLQMNSLRAEDTAVYYCADPFTELDYWGHGTLVTVSS
B12: BMS2h-116-1312 (other)
VL: DIQMTQSPSSLSASVGDRVTITCRASQPIGPDLLWYQQKPGKAPKLLIYQTSILRSGVPSRFSGSGSETDFTLTISNLQPEDLATYYCQQYWAFPVTFGKGTKVVIKR
B13: BMS2h-116-1313 (other)
VL: DIQMTQSPSSLSASVGDRVTITCRASQPIGPDLLWYQQKPGKAPKLLIYQTSILRSGVPSRFSGSGSETDFTLTISNLQPEDFATYYCQQYWAFPVTFGRGTKVVIKR
B14: BMS2h-116-1320 (other)
VL: DIQMTQSPSSLSAYVGDRVTITCRASQPIGPDLLWYQQKPGKAPKLLIYQTSILRSGVPSRFSGSGSETDFTLTISNLQPEDFAKYYCQQYWAFPVTFGQGTKVVIKR
B15: BMS2h-116-1319 (other)
VL: DIQMTQSPSSLSASVGDRVTITCRASQPIGPDLLWYQQKPGKAPKLLIYQTSIMRSGVPSRFSGSGSETDFTLTISNLQPEDFATYYCQQYWTFPVTFGQGTKVEIKR
B16: BMS2h-116-1314 (other)
VL: DIQMTQSPSSLSASVGDRVTITCRASQPIGPDLLWYRQKPGKAPKLLIYQTSILRSGVPSRFSGSGSETDFTLTISNLQPEDFATYYCQQYWAFPVTFGQGTKVVIKR
B17: BMS2h-572-632 (other)
VH: EVQLLESGGGLVQPGGSLRLSCAASGFTFKWQLMGWVRQAPGKGLEWVSGIEGPGDVTYYADSVKGRFTISRDNSKNTLYLQMNSLRAEDTAVYYCVKVGKDSKSDYRGQGTLVTVSS
B18: BMS2h-572-634 (other)
VH: EVQLLESGGGLVQPGGSLRLSCAASGFTFNWELMGWARQAPGKGLEWVSGIEGPGDVTYYADSVKGRFTISRDNSKNTLYLQMNSLRAEDTAVYYCVKVGKDSRSDYRGQGTLVTVSS
B19: BMS2h-572-9 (other)
VH: EVQLLESGGGLVQPGGSLRLSCAASGFTFNWQLMGWVRQAPGKGLEWVSGIEGPGDVTYYADSVKGRFTISRDNSKNTLYLQMNSLRAEDTAVYYCAKVGKESNSDYRGQGTLVTVSS
B20: BMS2h-572-14 (other)
VH: EVQLLESGGGLVQPGGSLRLSCAASGFTFNWQLMGWVRQAPGKGLEWVSGIEGPGDVTYYADSVKGRFTISRDNTKNTLYLQMNSLRAEDTAVYYCVKVGKESNSDYRGQGTLVTVSS
B21: BMS2h-572-15 (other)
VH: EVRLLESGGGLVQPGGSLRLSCAASGFNFNWQLMGWIRQAPGKGLEWVSGIEGPGDVTYYADSVKGRFTISRDNSKNTLYLQMNSLRAEDTAVYYCAKVGKESNSDYRGQGTLVTVSS
B22: BMS2h-572-635 (other)
VH: EVQLLESGGGLVQPGGSLRLSCAASGFTFNWELMGWARQAPGKGLEWVSGIEGPGDVTYYADSVKGRFTISRDNSKNTLYLQMNSLRAEDTAVYYCVKVGKDSKSDYRGQGTLVTVSS
B23: BMS2h-572-11 (other)
VH: EVQLLESGGGLVQPGGSLRLSCAASGFTFNWQLMGWVRQAPGKGLEWVSGIEGPGDVTYYADSVKGRFTISRDNSKNTLYLQMNSLRAEDTAVYYCVKVGKESNSDYRGQGTQVTVSS
B24: BMS2h-572 (other)
VH: EVQLLESGGGLVQPGGSLRLSCAASGFTFNWQLMGWVRQAPGKGLEWVSGIEGPGDVTYYADSVKGRFTISRDNSKNTLYLQMNSLRAEDTAVYYCAKVGKESNFDYRGQGTLVTVSS
B25: BMS2h-572-6 (other)
VH: EVQLLESGGGLVQPGGSLRLSCAASGFTFNWQLMGWVRQAPGKGLEWVSGIEGPGDVTYYADSVKGRFTISRDNSKNTLYLQMNSLRAEDTAVYYCVKVGKESNSDYRGQGTLVTVSS

Experiments:
[1] = molecular target: T1, human isoleucine zipper-CD40L (IZ-hCD40L) (human, UniProt P29965 113-261); experiment: cell-based or functional assay
T1 sequence: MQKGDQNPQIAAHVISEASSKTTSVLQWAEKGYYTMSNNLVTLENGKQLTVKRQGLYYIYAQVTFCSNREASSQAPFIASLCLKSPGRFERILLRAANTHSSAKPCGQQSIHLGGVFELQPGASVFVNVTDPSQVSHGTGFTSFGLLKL

[2] = molecular target: T2, human CD40L, membrane-bound on cells (human, UniProt P29965 1-261); experiment: cell-based or functional assay
T2 sequence: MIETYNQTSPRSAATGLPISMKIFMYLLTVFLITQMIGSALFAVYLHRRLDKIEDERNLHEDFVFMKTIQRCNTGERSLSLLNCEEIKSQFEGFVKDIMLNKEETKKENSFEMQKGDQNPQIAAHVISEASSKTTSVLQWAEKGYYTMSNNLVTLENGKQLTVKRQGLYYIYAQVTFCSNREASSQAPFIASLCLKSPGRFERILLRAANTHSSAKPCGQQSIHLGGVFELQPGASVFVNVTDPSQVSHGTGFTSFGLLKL

Row | Binder | hIZCD40L-driven Human B Cell Proliferation EC50 [1] | CHO-hCD40L-driven DC Activation IL-12 EC50 [2] | CHO-hCD40L-driven Human B Cell Proliferation EC50 [2] | T-B cell MLR EC50 [2]
1 | B1 | 6100 nM | – | – | –
2 | B2 | > 7000 nM | – | – | –
3 | B3 | 4800 nM | – | – | –
4 | B4 | 82 nM | 196 nM | > 7000 nM | –
5 | B5 | 29 nM | 79 nM | – | –
6 | B6 | 132 nM | 113 nM | 236 nM and 268 nM | –
7 | B7 | 358 nM | 266 nM | – | –
8 | B8 | 253 nM and 198 nM | 176 nM | – | –
9 | B9 | 164 nM and 247 nM | 812 nM | – | –
10 | B10 | 138 nM | 184 nM | – | –
11 | B11 | 50 nM | 219 nM | – | –
12 | B12 | 23 nM | 112 nM | 530 nM | 234 nM
13 | B13 | – | – | – | 258 nM
14 | B14 | 20 nM | 32 nM | 138 nM | 191 nM
15 | B15 | 180 nM | – | > 7000 nM | –
16 | B16 | 41 nM | 664 nM | – | 1690 nM
17 | B17 | 117 nM | 241 nM | – | –
18 | B18 | 31 nM | 77 nM | – | –
19 | B19 | 324 nM and 243 nM | > 2000 nM | – | –
20 | B20 | 134 nM | 882 nM | > 7000 nM | –
21 | B21 | 168 nM | 876 nM | > 7000 nM | –
22 | B22 | 29 nM | 52 nM | – | –
23 | B23 | 140 nM | – | > 7000 nM | –
24 | B24 | > 7000 nM | – | – | –
25 | B25 | 208 nM | – | > 7000 nM | > 7000 nM
